Results as given in patent US11319551B2, “Methods and compositions for PPO herbicide tolerance in plants” (Monsanto Technology LLC, priority 2015, dated 2022).

Tests used:
[1] = tested on: transgenic soybean plants; assay: S-3100 tolerance of transformed soybean plantlets at five weeks; format: in vivo; set-up: key to Tolerance score to S-3100 at 5 weeks: 0 for poor tolerance, high damage, low green coloration; 1 for some tolerance, average damage, moderate green coloration; 2 for good tolerance, low damage, high green coloration; details: for Tolerance score to S-3100 at 5 weeks: day four post application
Procedure: The microbial HemY PPO enzymes were expressed in transgenic soybean plants, and the transgenic plants were analyzed for PPO herbicide tolerance. […] For plant transformation, the nucleotide sequences encoding the HemY PPO enzymes were codon optimized for dicot expression. This permitted the side-by-side comparison of the seven different HemY PPO enzymes with thirty-nine different targeting peptides using the same promoter and 3′UTR elements for gene expression
The plant transformation constructs were used to transform soybean excised embryos (germplasm A3555) using A. tumefaciens and standard methods known in the art. Four hundred explants were inoculated for each construct resulting in twelve containers per construct. A sterile PPO herbicide solution was used for herbicide tolerance testing. The herbicide solution consisted of 0.3 g of S-3100 in crop oil concentrate (5.0 mL) and 495 mL of deionized water. This was filtered through a 0.45 micron Nalgene® Rapid-Flow™ Tissue Culture Filter Unit and Surfactant-Free Cellulose Acetate membrane filter unit (VWR, Radnor, Pa., USA). The resulting sterile solution was shaken before application.
At five weeks post-transformation, four of the twelve plant containers per construct were sprayed with two passes of the sterile PPO herbicide solution. The treated plantlets were then enclosed in the container and received at least 15 hours of light exposure post spray each day for four days. At the end of day four post application of S-3100, the treated plantlets were photographed and scored on a visual scale of green coloration (green coloration was representative of healthy photosynthetic plant tissue as compared to photo-bleached tissue) versus damage. The scoring values were 0 for poor tolerance, high damage, low green coloration; 1 for some tolerance, average damage, moderate green coloration; and 2 for good tolerance, low damage, high green coloration. The results of herbicide application of S-3100 at five weeks is presented in Table 5, where n.d. indicates the analysis was not conducted.

[2] = tested on: hemG knockout E. coli strain; format: cell-based; details: acifluorfen and S-3100
[3] = PPO enzyme assay, apparent Km for substrate; format: biochemical; details: substrate protoporphyrinogen

B1: R2N100: microbial HemY protoporphyrinogen oxidase, SEQ ID NO:5 (protein, listed as Bacillus pumilus)
chain: MHDNQKHLVIIGGGITGLAAAFYLEKEVEEKGLPIQISLIEASPRLGGKIQTLYKDGYIIERGPDSFLERKVSGPQLAKDVGLSDQLVNNETGQAYVLVNETLHPMPKGAVMGIPTQISPFITTGLFSVAGKARAAMDFVLPKSKQTEDQSLGEFFRRRVGDEVVENLIEPLLSGIYAGDIDRLSLMSTFPQFYQTEQKHRSLILGMKKSQQHAKAQQVTAKKQGQFQTINQGLQALVEAVESKLKLTTIYKGTKVKQIEKTDGGYGVQLDSGQTLLADSAIVTTPHQSIYSMFPKEAGLEYLHDMTSTSVATVALGFKEEDVHNEYDGTGFVISRNSDFSITACTWTNKKWPHTAPKGKTLLRAYVGKAGDESIVEQSDHQIVSIVLEDLKKIMDIKADPELTTVTRWKTSMPQYHVGHQKAISNMRETFKQSYPGVYITGAAFEGVGIPDCIDQGKAAISEAVSYLFS
With B1 the “tolerance to the PPO herbicide in high-throughput screening at five weeks” value ([1]; S-3100, over the constructs with different transit peptides) was “did not provide tolerance”, the “Tolerance score to S-3100 at 5 weeks” value ([1]; targeting peptide TP1) was 0 and the “Tolerance score to S-3100 at 5 weeks” value ([1]; targeting peptide TP2) was 0. The “Tolerance score to S-3100 at 5 weeks” value ([1]; targeting peptide TP3) was 0, the “Tolerance score to S-3100 at 5 weeks” value ([1]; targeting peptide TP4) was 0 and the “Tolerance score to S-3100 at 5 weeks” value ([1]; targeting peptide TP5) was 0. For the same molecule, the “Tolerance score to S-3100 at 5 weeks” value ([1]; targeting peptide TP6) was 0, the “Tolerance score to S-3100 at 5 weeks” value ([1]; targeting peptide TP8) was 1 and the “Tolerance score to S-3100 at 5 weeks” value ([1]; targeting peptide TP10) was 1. For the same molecule, the “Tolerance score to S-3100 at 5 weeks” value ([1]; targeting peptide TP12) was 0, the “Tolerance score to S-3100 at 5 weeks” value ([1]; targeting peptide TP14) was 1 and the “Tolerance score to S-3100 at 5 weeks” value ([1]; targeting peptide TP15) was 0. The “Tolerance score to S-3100 at 5 weeks” value ([1]; targeting peptide TP17) was 0, the “Tolerance score to S-3100 at 5 weeks” value ([1]; targeting peptide TP18) was 1 and the “Tolerance score to S-3100 at 5 weeks” value ([1]; targeting peptide TP19) was 1. For the same molecule, the “Tolerance score to S-3100 at 5 weeks” value ([1]; targeting peptide TP21) was 0, the “Tolerance score to S-3100 at 5 weeks” value ([1]; targeting peptide TP22) was 0 and the “Tolerance score to S-3100 at 5 weeks” value ([1]; targeting peptide TP23) was 0. The “Tolerance score to S-3100 at 5 weeks” value ([1]; targeting peptide TP24) was 0, the “Tolerance score to S-3100 at 5 weeks” value ([1]; targeting peptide TP25) was 0 and the “Tolerance score to S-3100 at 5 weeks” value ([1]; targeting peptide TP26) was 1. The “Tolerance score to S-3100 at 5 weeks” value ([1]; targeting peptide TP27) was 0, the “Tolerance score to S-3100 at 5 weeks” value ([1]; targeting peptide TP28) was 1 and the “Tolerance score to S-3100 at 5 weeks” value ([1]; targeting peptide TP29) was 0. The “Tolerance score to S-3100 at 5 weeks” value ([1]; targeting peptide TP30) was 0, the “Tolerance score to S-3100 at 5 weeks” value ([1]; targeting peptide TP31) was 1 and the “Tolerance score to S-3100 at 5 weeks” value ([1]; targeting peptide TP32) was 0. For the same molecule, the “Tolerance score to S-3100 at 5 weeks” value ([1]; targeting peptide TP33) was 0, the “Tolerance score to S-3100 at 5 weeks” value ([1]; targeting peptide TP36) was 0 and the “Tolerance score to S-3100 at 5 weeks” value ([1]; targeting peptide TP37) was 0. The “growth rate of hemG knockout E. coli strain in presence of PPO herbicide” value [2] was “slower”, the “tolerance to acifluorfen and S-3100 compared with strain containing R2N30 or R2N40” value [2] was “much better” and the Km [3] was 0.4 µM.
